Substrate: Nc1ncnc2c1ncn2[C@@H]1O[C@H](COP(=O)(O)OP(=O)(O)OP(=O)(O)OP(=O)(O)OC[C@H]2O[C@@H](n3cnc4c(N)ncnc43)[C@H](O)[C@@H]2O)[C@@H](O)[C@H]1O
Test: luciferase bioluminescence assay of liberated ATP
Type: biochemical, Chlamydia trachomatis
Settings: 5.0 mM MgCl2, 100 mM Tris-HCl pH 7.5, room temperature

B1: CT771 (Chlamydia trachomatis L2/434/Bu) (protein)
chain: MMKTKHEYSFGVIPIRFFGTPDRSTLKACFICHTDGKHWGFPKGHAEEKEGPQEAAERELVEETGLGIVNFFPKIFVENYSFNDKEEIFVRKEVTYFLAEVKGEVHADPDEICDVQWLSFQEGLRLLNFPEIRNIVTEADKFVQSYLFAS
  Km: 333 ± 27 µM
  kcat: 3.25 ± 0.1 s⁻¹

Source: paper PMC3956076
